Assay results taken from paper PMC7666581, “Atypical chemoreceptor arrays accommodate high membrane curvature” (Nature Communications, 2020).

Tests used:
[1] = target: T1, CheR (classical Td CheR) (Treponema denticola, UniProt Q73PZ7); experiment: isothermal titration calorimetry; type: binding
T1 construct: purified CheR; cloning and tag not described in main text; printed residues R79, Gly152, Val180, Y218
T1 sequence (Q73PZ7 1-271): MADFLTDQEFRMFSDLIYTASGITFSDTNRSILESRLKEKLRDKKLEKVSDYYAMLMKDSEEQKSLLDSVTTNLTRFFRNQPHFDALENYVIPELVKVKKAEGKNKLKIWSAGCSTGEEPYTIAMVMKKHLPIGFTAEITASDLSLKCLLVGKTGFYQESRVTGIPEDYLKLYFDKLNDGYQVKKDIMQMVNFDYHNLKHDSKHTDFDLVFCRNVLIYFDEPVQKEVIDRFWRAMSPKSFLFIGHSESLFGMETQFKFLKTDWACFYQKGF

[2] = target: T2, CheW-CheRlike (CheW-Rlike) (Treponema denticola, UniProt F7IUZ1); experiment: isothermal titration calorimetry; type: binding
T2 construct: gene cheW-1; full-length fusion: N-terminal CheW domain, 28-residue linker, C-terminal CheR-like domain; poly-His tag (pET28a), E. coli BL21(DE3); mainly monomer
T2 sequence (F7IUZ1 1-444): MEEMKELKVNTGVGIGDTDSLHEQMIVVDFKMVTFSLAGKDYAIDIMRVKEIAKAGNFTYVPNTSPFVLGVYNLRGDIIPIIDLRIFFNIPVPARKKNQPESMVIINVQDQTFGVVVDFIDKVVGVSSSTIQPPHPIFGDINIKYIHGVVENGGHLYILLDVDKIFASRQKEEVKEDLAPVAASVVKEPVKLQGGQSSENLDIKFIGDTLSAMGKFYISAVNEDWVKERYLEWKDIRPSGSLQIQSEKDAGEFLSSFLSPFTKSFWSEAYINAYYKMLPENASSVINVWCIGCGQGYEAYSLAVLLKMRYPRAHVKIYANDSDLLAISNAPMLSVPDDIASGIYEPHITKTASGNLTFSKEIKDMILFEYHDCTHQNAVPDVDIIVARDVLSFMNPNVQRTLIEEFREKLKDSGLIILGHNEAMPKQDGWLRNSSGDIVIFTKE

[3] = target: Treponema denticola histidine kinase CheA (Treponema denticola) (UniProt O85747); experiment: SEC-MALS; 25 °C; each sample 10 mg/mL; 50 mM MOPS pH 7.5, 150 mM KCl, 5 mM MgCl2; mixed sample 1:1 molar CheA:CheW-R_(like); CheW-R_(like) pre-incubated 15 min with 5 mM DTT; GE S200 Increase (10/300)
[4] = target: the molecule itself; experiment: crystal structure; isolated P3 domain at 32 mg/ml, hanging drop, 0.1 M Imidazole pH 7.0, 25% PEG 400; data cut off at 1.5 Å
[5] = target: the molecule itself; experiment: SEC-MALS; 25 °C; each sample 10 mg/mL; 50 mM MOPS pH 7.5, 150 mM KCl, 5 mM MgCl2; mixed sample 1:1 molar CheA:CheW-R_(like); CheW-R_(like) pre-incubated 15 min with 5 mM DTT; GE S200 Increase (10/300)

C[S+](CC[C@H](N)C(=O)O)C[C@H]1O[C@@H](n2cnc3c(N)ncnc32)[C@H](O)[C@@H]1O (some centres unmarked) [S-adenosylmethionine]
Kd [1]: 20 ± 3.7 µM
Kd [2]: 8.8 ± 1.9 µM

Treponema denticola CheW-CheR_(like) protein (TDE1492) (natural protein)
stoichiometry N (CheW-R subunit per CheA dimer) [3]: 1

B1: Treponema denticola CheA P3 domain (dimerization domain) (domain or fragment)
chain: SILRVDANRIDYLLNLVSETVITKASLNQSTIEFAELYDKFQNSSTIYKDKTRRLLDKMPEYLEKIQQGYDINSIKQDVLNEYSSLLEVFGDFDSLMKAAVTKFKSSSQNLGRISGELQEGVMKIRMVP
notes: P3 (dimerization) domain of Treponema denticola CheA, with about 50 additional residues joining the canonical P3 helices; Cloned NdeI/EcoRI into pet28a; The printed residue number Tyr83 probably counts on the deposited construct and not on whole CheA; also called Td P3 domain; isolated P3 domain; source: E. coli BL21-DE3, purified (Nickel-NTA, size exclusion)
binding result [4]: binds

B2: Treponema denticola histidine kinase CheA (enzyme, UniProt O85747 1-801, looked up)
chain: MSDYLDINNEELLKDFFSEAEQQVEILESNVLVIEQNPEDRNSIDEIFRAAHTLKGGSATVEMLELSKFTHAMEDLLDEIRSGSVKVTGETVDLLLKSIDIIKLMLDARASGSIYSDDVSGIVNQLRSFIPAKAEKKSSKASAPKVSIPASVSPVSAPKVQASASNLDIKDYFSEYEILELAETIQKGEDLYAVIVKFDESNLMNSVGGIQVFAALKDYGSVLKTVPDFDALYEDEFHETVIYFLSSASDSKILEKAAFIGDVTLSASAERLDIKDKTPESPKPAKAAPAQSAPEASVSEVKVSEKTEEKPVQESKEQPSKPEKKQSQTSPQGSGHSSGSILRVDANRIDYLLNLVSETVITKASLNQSTIEFAELYDKFQNSSTIYKDKTRRLLDKMPEYLEKIQQGYDINSIKQDVLNEYSSLLEVFGDFDSLMKAAVTKFKSSSQNLGRISGELQEGVMKIRMVPISQIFSRFPRVVRDLSRDLNKNVQLVIEGEDTELDKSVVEDLLDPIMHCVRNSLDHGVESPEVRKGLGKPEQGILLLKASNEGNMIVIEVADDGHGIDVEAVKQKAVERGILHPNKSLTDVEAFQLVFAPGFSTSKTISSVSGRGVGLDVVKTHIEKLNGTVMVESEPNVGTRFIIKLPLTLAIIQGLLIRVGDEVYSIPITSVIESHRVKPDEINRIDNYEVFNVRDEVYSLLRLNRLFGITSAETDDDGYNYIVVVGTEEKKVGLMVDSLIGEEAVVIKPLKDQFTNSPGIAGASILGDGSVSLIIDVAQLLELGLKQEMQARERREASIW
notes: Histidine kinase CheA of Treponema denticola ATCC 35405, the only CheA homolog in the genome; amplified from Td genomic DNA; Cloned NdeI/BamHI into pet28a; co-transcribed with TDE1492; also called Td CheA; CheA-F2; source: E. coli BL21-DE3, purified (Nickel-NTA, size exclusion)
stoichiometry N [5]: 2
